Laboratory results: patent US20180155451A1 (published 2018)

Columns and labels:
[1] = target: T1, FcγRIIa R (extracellular domain, C-terminal His tag) (human, UniProt P12318 34-217); test: SPR (Biacore), antibody captured on antigen-peptide chip, FcγR as analyte; relative binding amount
T1 construct: extracellular domain; also called FcgRIIa R type; 2aR; not shown: His tag attached to the C terminus
T1 sequence (looked up): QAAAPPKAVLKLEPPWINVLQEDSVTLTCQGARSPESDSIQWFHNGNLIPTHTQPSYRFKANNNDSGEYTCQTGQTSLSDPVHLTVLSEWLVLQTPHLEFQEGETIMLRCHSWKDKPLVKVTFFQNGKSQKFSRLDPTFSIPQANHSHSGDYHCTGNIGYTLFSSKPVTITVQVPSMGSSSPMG
Experimental: (§1) The heterodimerized antibodies He Abs in which one of the H chains was introduced with an alteration were assayed for their binding activities to each activating FcγR and inhibitory FcγR according to the method described in Example 4. […] The activating FcγRs in FIGS. 26, 27, 28, and 29 are FcγRIa, FcγRIIa (R), FcγRIIa (H), and FcγRIIIa, respectively.
(§2) Analysis of interaction between objective antibody and the FcγR was carried out using Biacore T100 (GE Healthcare). HBS-EP+ (GE Healthcare) was used as the running buffer, and the measurement temperature was set to 25° C. Chips produced by immobilizing the antigen peptide by the amine coupling method to a Series S Sencor Chip CM5 (GE Healthcare), or alternatively, chips produced by allowing preliminarily biotinylated antigen peptides to interact with and immobilize onto a Series S Sensor Chip SA (certified) (GE Healthcare) were used. Antibodies of interest were captured onto an antigen peptide-immobilized chip, and allowed to interact to each FcγR diluted with running buffer. To regenerate and repeatedly use the chip, the antibodies captured on the chip were washed off by reacting 10 mM glycine-HCl, pH 1.5.

[2] = target: T2, FcγRIIb (extracellular domain, C-terminal His tag) (human, UniProt P31994 43-217); test: as above
T2 construct: extracellular domain; also called FcgRIIb; 2b; not shown: His tag attached to the C terminus
T2 sequence (looked up): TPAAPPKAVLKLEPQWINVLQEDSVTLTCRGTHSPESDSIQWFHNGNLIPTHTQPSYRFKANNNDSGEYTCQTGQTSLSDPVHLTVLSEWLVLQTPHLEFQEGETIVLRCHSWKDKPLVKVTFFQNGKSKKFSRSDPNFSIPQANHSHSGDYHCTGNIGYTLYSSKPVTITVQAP
Experimental: as §1, §2

B1: GpH7-A5/GpH7-B3 variant S337_02A/GpL16-k0 (antibody, human IgG1, kappa)
heavy 1: not shown
heavy 2: not shown
light: DIVMTQSPLSLPVTPGEPASISCQASESLVHSNRNTYLHWYLQKPGQSPQLLIYKVSNRFSGVPDRFSGSGSGTDFTLKISRVEAEDVGVYYCSQNTHVPPTFGQGTKVEIERTVAAPSVFIFPPSDEQLKSGTASVVCLLNNFYPREAKVQWKVDNALQSGNSQESVTEQDSKDSTYSLSSTLTLSKADYEKHKVYACEVTHQGLSSPVTKSFNRGEC
notes: Heterodimerized anti-glypican-3 IgG1; alteration in only one H chain (GpH7-B3 side); also called He Ab
- He/Con_2aR [1]: 105 % of control (GpH7-A5/GpH7-B3/GpL16-k0 = 100)
- He/Con_2b [2]: 97.2 % of control (GpH7-A5/GpH7-B3/GpL16-k0 = 100)

B2: GpH7-A5/GpH7-B3 variant E333_07I/GpL16-k0 (antibody, human IgG1, kappa)
heavy 1: not shown
heavy 2: not shown
light: DIVMTQSPLSLPVTPGEPASISCQASESLVHSNRNTYLHWYLQKPGQSPQLLIYKVSNRFSGVPDRFSGSGSGTDFTLKISRVEAEDVGVYYCSQNTHVPPTFGQGTKVEIERTVAAPSVFIFPPSDEQLKSGTASVVCLLNNFYPREAKVQWKVDNALQSGNSQESVTEQDSKDSTYSLSSTLTLSKADYEKHKVYACEVTHQGLSSPVTKSFNRGEC
notes: as for B1
- He/Con_2aR [1]: 104 % of control (GpH7-A5/GpH7-B3/GpL16-k0 = 100)
- He/Con_2b [2]: 96.2 % of control (GpH7-A5/GpH7-B3/GpL16-k0 = 100)

B3: GpH7-A5/GpH7-B3 variant E333_08L/GpL16-k0 (antibody, human IgG1, kappa)
heavy 1: not shown
heavy 2: not shown
light: DIVMTQSPLSLPVTPGEPASISCQASESLVHSNRNTYLHWYLQKPGQSPQLLIYKVSNRFSGVPDRFSGSGSGTDFTLKISRVEAEDVGVYYCSQNTHVPPTFGQGTKVEIERTVAAPSVFIFPPSDEQLKSGTASVVCLLNNFYPREAKVQWKVDNALQSGNSQESVTEQDSKDSTYSLSSTLTLSKADYEKHKVYACEVTHQGLSSPVTKSFNRGEC
notes: as for B1
- He/Con_2aR [1]: 103 % of control (GpH7-A5/GpH7-B3/GpL16-k0 = 100)
- He/Con_2b [2]: 95 % of control (GpH7-A5/GpH7-B3/GpL16-k0 = 100)

B4: GpH7-A5/GpH7-B3 variant E333_09D/GpL16-k0 (antibody, human IgG1, kappa)
heavy 1: not shown
heavy 2: not shown
light: DIVMTQSPLSLPVTPGEPASISCQASESLVHSNRNTYLHWYLQKPGQSPQLLIYKVSNRFSGVPDRFSGSGSGTDFTLKISRVEAEDVGVYYCSQNTHVPPTFGQGTKVEIERTVAAPSVFIFPPSDEQLKSGTASVVCLLNNFYPREAKVQWKVDNALQSGNSQESVTEQDSKDSTYSLSSTLTLSKADYEKHKVYACEVTHQGLSSPVTKSFNRGEC
notes: as for B1
- He/Con_2aR [1]: 103 % of control (GpH7-A5/GpH7-B3/GpL16-k0 = 100)
- He/Con_2b [2]: 94.3 % of control (GpH7-A5/GpH7-B3/GpL16-k0 = 100)

B5: GpH7-A5/GpH7-B3 variant E333_15Y/GpL16-k0 (antibody, human IgG1, kappa)
heavy 1: not shown
heavy 2: not shown
light: DIVMTQSPLSLPVTPGEPASISCQASESLVHSNRNTYLHWYLQKPGQSPQLLIYKVSNRFSGVPDRFSGSGSGTDFTLKISRVEAEDVGVYYCSQNTHVPPTFGQGTKVEIERTVAAPSVFIFPPSDEQLKSGTASVVCLLNNFYPREAKVQWKVDNALQSGNSQESVTEQDSKDSTYSLSSTLTLSKADYEKHKVYACEVTHQGLSSPVTKSFNRGEC
notes: as for B1
- He/Con_2aR [1]: 101 % of control (GpH7-A5/GpH7-B3/GpL16-k0 = 100)
- He/Con_2b [2]: 94.4 % of control (GpH7-A5/GpH7-B3/GpL16-k0 = 100)

B6: GpH7-A5/GpH7-B3 variant I336_18N/GpL16-k0 (antibody, human IgG1, kappa)
heavy 1: not shown
heavy 2: not shown
light: DIVMTQSPLSLPVTPGEPASISCQASESLVHSNRNTYLHWYLQKPGQSPQLLIYKVSNRFSGVPDRFSGSGSGTDFTLKISRVEAEDVGVYYCSQNTHVPPTFGQGTKVEIERTVAAPSVFIFPPSDEQLKSGTASVVCLLNNFYPREAKVQWKVDNALQSGNSQESVTEQDSKDSTYSLSSTLTLSKADYEKHKVYACEVTHQGLSSPVTKSFNRGEC
notes: as for B1
- He/Con_2aR [1]: 104 % of control (GpH7-A5/GpH7-B3/GpL16-k0 = 100)
- He/Con_2b [2]: 97.6 % of control (GpH7-A5/GpH7-B3/GpL16-k0 = 100)

B7: GpH7-A5/GpH7-B3 variant S337_03V/GpL16-k0 (antibody, human IgG1, kappa)
heavy 1: not shown
heavy 2: not shown
light: DIVMTQSPLSLPVTPGEPASISCQASESLVHSNRNTYLHWYLQKPGQSPQLLIYKVSNRFSGVPDRFSGSGSGTDFTLKISRVEAEDVGVYYCSQNTHVPPTFGQGTKVEIERTVAAPSVFIFPPSDEQLKSGTASVVCLLNNFYPREAKVQWKVDNALQSGNSQESVTEQDSKDSTYSLSSTLTLSKADYEKHKVYACEVTHQGLSSPVTKSFNRGEC
notes: as for B1
- He/Con_2aR [1]: 106 % of control (GpH7-A5/GpH7-B3/GpL16-k0 = 100)
- He/Con_2b [2]: 98.9 % of control (GpH7-A5/GpH7-B3/GpL16-k0 = 100)

B8: GpH7-A5/GpH7-B3 variant S337_04F/GpL16-k0 (antibody, human IgG1, kappa)
heavy 1: not shown
heavy 2: not shown
light: DIVMTQSPLSLPVTPGEPASISCQASESLVHSNRNTYLHWYLQKPGQSPQLLIYKVSNRFSGVPDRFSGSGSGTDFTLKISRVEAEDVGVYYCSQNTHVPPTFGQGTKVEIERTVAAPSVFIFPPSDEQLKSGTASVVCLLNNFYPREAKVQWKVDNALQSGNSQESVTEQDSKDSTYSLSSTLTLSKADYEKHKVYACEVTHQGLSSPVTKSFNRGEC
notes: as for B1
- He/Con_2aR [1]: 105 % of control (GpH7-A5/GpH7-B3/GpL16-k0 = 100)
- He/Con_2b [2]: 97.8 % of control (GpH7-A5/GpH7-B3/GpL16-k0 = 100)
